In patent US20250084169A1:
“And” between values parts separate entries of the source, which are not always exact repeats. Identical values can stand only once.

What was measured:
[1] = molecular target: SARS-CoV-2 spike N439K variant on pseudovirus (RVP-703) (SARS-CoV-2) (UniProt P0DTC2); experiment: cell-based or functional assay
[2] = molecular target: SARS-CoV-2 spike South African Δ3 B.1.351 variant on pseudovirus (RVP-724) (SARS-CoV-2) (UniProt P0DTC2); experiment: cell-based or functional assay

Substance: Imdevimab (biosimilar version) (antibody)
- EC50 (pM) Neutralization, pseudovirus [1]: 2260 pM and 2220 pM
- fold less potent than REGN10933, pseudovirus neutralization [1]: 1000 fold
- EC50 (pM) Neutralization, pseudovirus [2]: 2.48 pM and 2.37 pM
